# Laboratory results as given in patent publication US12514853B2, “Therapeutic dendrimer” (Starpharma Pty Ltd, priority 2018, dated 2026).
# “And” between values parts separate entries of the source, which are not always exact repeats. Equal values may be shown once. Read-outs that look alike come from different tables or passages of the source.
# Tests used:
# [1] = for tolerability: 2f 15 mg/kg, 2i 15 mg/kg, 2h 25 mg/kg, 2a 30 mg/kg SN-38 equivalents, IV once weekly for three weeks
# [2] = system: MDA-MB-231 (human breast carcinoma cell line) xenograft; assay: Efficacy in MDA-MB-231 xenograft model in mice; type: in vivo, Balb/c nude mice; details: irinotecan 90 mg/kg, 2f 15, 2h 25 mg/kg IV once weekly for three weeks
# [3] = patients to which irinotecan is administered; cited from earlier work
# [4] = system: HT-29 (human colon carcinoma cell line) xenograft; assay: Efficacy in HT-29 xenograft model in mice; type: in vivo, Balb/c nude mice; details: for Tumour growth inhibited: day 36, vs vehicle, irinotecan 90 mg/kg, 2f 15, 2i 15, 2h 25 mg/kg IV; for effect on HT-29 tumour growth: 2f 15, 2i 15, 2h 25 mg/kg SN-38 equivalents IV once weekly
# [5] = system: HT-29 cells (human colon cancer cell line); assay: In-vitro anti-cancer drug screening, cell counting (SRB) assay; type: cell-based; details: concentration required to inhibit net cell growth by 50%
# Experimental: A study was carried out to determine the ability of example dendrimers to inhibit growth of HT-29 cells (human colon cancer cell line) using a cell counting (SRB) assay.
# [6] = system: HT-29 (human colon carcinoma cell line) xenograft; assay: Efficacy alone or in combination with olaparib in HT-29 xenograft model in mice; type: in vivo, Balb/c nude mice; details: for Percent TGI: day 28; for effect on HT-29 tumour growth (in words): olaparib 50 mg/kg orally, irinotecan 80 mg/kg IV, their combination, 2f 5 and 8 mg/kg IV
# Experimental: Olaparib solid powder obtained from MedChemExpress was solubilised in DMSO and an oral formulation was prepared at a final concentration of 5 mg/ml in 10% DMSO: 15% (2-Hydroxypropyl)-β-cyclodextrin in sterile water.
# The endpoint for the analysis was a tumour volume of 1200 mm^3.
# Statistical analysis of tumour growth was performed on day 28 when the first study animals reached endpoint criteria for tumour burden.
# [7] = system: SW620 (human colon carcinoma cell line) xenograft; assay: Efficacy in SW620 xenograft model in mice; details: for effect on SW620 tumour growth / tolerability: irinotecan 90 mg/kg; for effect on SW620 tumour growth: 2f 15, 2i 15, 2h 25, 2a 25 mg/kg IV days 1, 8, 15, study to day 119; for tolerability: 2f 15, 2i 15, 2h 25, 2a 25 mg/kg IV once weekly for three weeks
# [8] = plasma release study (SN-38 release in rat plasma); type: in vitro ADME; details: 37° C.
# [9] = SN-38 release from dendrimers in 9:1 PBS/DMA at 37° C. and pH 7.4; type: physicochemical; details: SN-38 released, pH 7.4, 1 mg/mL dendrimer
# Experimental: A study was carried out to determine the rate of SN-38 release from certain dendrimeric compounds in 9:1 PBS (phosphate-buffered saline): DMA at 37° C. and pH 7.4.
# The PBS release study was conducted by preparing 1 mg/mL solutions of dendrimer in 9:1 v/v (PBS/DMA) immediately prior to incubation at 37° C. Samples were analysed at 6 h and 18 h and other timepoints by HPLC, comparing the % peak area of SN-38 to the % peak area of dendrimer construct. HPLC (C8 Xbridge, 3×100 mm), gradient: 5% ACN/H2O (0-1 min), 5-80% ACN (1-7 min), 80% ACN (7-12 min), 80-5% ACN (12-13 min), 5% ACN (13-15 min), 243 nm, 10 mM ammonium formate buffer, 0.4 mL/min.
# [10] = system: CAPAN-1 (pancreatic cancer cell line) xenograft; assay: Efficacy in CAPAN-1 xenograft model in mice; type: in vivo
# [11] = system: HT-29 (human colon carcinoma cell line) xenograft; assay: Efficacy alone or in combination with cetuximab in HT-29 xenograft model in mice
# [12] = Single dose pharmacokinetic study in rats; details: rat, single slow bolus IV
# [13] = olaparib 50 mg/kg orally 5 days on/2 days off for 3 weeks, irinotecan 80 mg/kg IV days 1, 8, 15
# [14] = 15 mg/kg SN-38 equivalents IV once weekly for 3 weeks
# [15] = 20 mg/kg SN-38 equivalents IV once weekly for 3 weeks
# [16] = 30 mg/kg SN-38 equivalents IV once weekly for 3 weeks
# [17] = high dose 2f (approx. 16.5 mg/kg SN-38 equivalents)
# [18] = low dose 2f (approx. 1.3 mg/kg SN-38 equivalents)
# [19] = medium dose 2f (approx. 7.5 mg/kg SN-38 equiv)
compound,measurement,setting,value
"CCc1c2c(nc3ccc(OC(=O)N4CCC(N5CCCCC5)CC4)cc13)-c1cc3c(c(=O)n1C2)COC(=O)[C@]3(O)CC [Irinotecan, reference compound]",signs of toxicity,[1]; 100 mg/kg irinotecan,pale extremities and lethargy
same,effect on MDA-MB-231 tumour growth,[2],continued to grow during drug treatment
same,"patients with early symptoms of gastrointestinal toxicity (diarrhea, emesis, diaphoresis, abdominal cramping)",[3],up to 80%
same,Tumour growth inhibited,[4],23%
same,GI50,[5]; Homo sapiens,7000 nM
same,Percent TGI,[6]; [13],33%
same,effect on HT-29 tumour growth (in words),[6],moderate effect on tumour growth
same,effect on SW620 tumour growth,[7],"delay of tumour growth with the exception of one tumour, which completely regressed after day 25"
"O=C(c1cc(Cc2n[nH]c(=O)c3ccccc23)ccc1F)N1CCN(C(=O)C2CC2)CC1 [Olaparib, reference compound]",Percent TGI,[6]; [13],0%
same,effect on HT-29 tumour growth (in words),[6],no effect on tumour growth
"CCc1c2c(nc3ccc(O)cc13)-c1cc3c(c(=O)n1C2)COC(=O)[C@]3(O)CC [SN-38, reference compound]",GI50,[5]; Homo sapiens,< 10 nM
BHALys[Lys]32[α-DGA-C10-SN-38]32†[ε-PEG˜2300]32‡ [Dendrimer 2e],% SN-38 released,[8]; 0.5 h,30.58%
same,% SN-38 released,[8]; 2 h,57.54%
same,% SN-38 released,[8]; 4 h,67.96%
same,% SN-38 released,[8]; 6 h,75.16%
same,% SN-38 released,[8]; 22 h,95.38%
same,GI50,[5],< 10 nM
same,% Release at 6 h in 9:1 PBS/DMA at 37° C.,[9],64%
same,% Release at 18 h in 9:1 PBS/DMA at 37° C.,[9],71%
BHALys[Lys]32[α-DGA-C20-Irinotecan]32†[ε-PEG˜2300]32‡ [Dendrimer 2j],GI50,[5],12000 nM
BHALys[Lys]32[α-DGA-C20-SN-38]32†[ε-PEG˜2100]32‡ [Dendrimer 2f],Max. body weight loss (%),[1]; [14],4%
same,Max. body weight loss (%),[1]; [15],10%
same,Max. body weight loss (%),[1]; [16],22%
same,tolerability,[1],well tolerated
same,% SN-38 released,[8]; 0.5 h,5.06%
same,% SN-38 released,[8]; 2 h,24.56%
same,% SN-38 released,[8]; 4 h,45.36%
same,% SN-38 released,[8]; 6 h,61.81%
same,% SN-38 released,[8]; 22 h,95.61%
same,effect on MDA-MB-231 tumour growth,[2],induce MDA-MB-231 tumour regression
same,effect on CAPAN-1 tumour growth,[10]; administered intraperitoneally once weekly for three weeks,induces CAPAN-1 tumour regression
same,effect on CAPAN-1 tumour growth,[10]; administered intravenously once weekly for three weeks,induces CAPAN-1 tumour regression
same,effect on HT-29 tumour growth,[4],induce transient regression of HT-29 tumours
same,Tumour growth inhibited,[4],108%
same,GI50,[5],50 nM and 40 nM
same,% Release at 6 h in 9:1 PBS/DMA at 37° C.,[9],24%
same,% Release at 18 h in 9:1 PBS/DMA at 37° C.,[9],55%
same,survival versus cetuximab,[11]; 2f 10 and 5 mg/kg vs cetuximab 25 mg/kg,prolonged survival versus cetuximab
same,survival versus irinotecan,"[11]; 2f 10 and 5 mg/kg vs irinotecan 35 mg/kg, P<0.0001",significantly prolonged survival versus irinotecan
same,"AUC0-∞, free SN-38",[12]; [17],"6,677 ng · hr/mL"
same,"Cmax, free SN-38",[12]; [17],289 ng/mL
same,"Cmax, total SN-38",[12]; [17],"306,500 ng/mL"
same,Free SN-38 at 120 hours,[12]; [17],10.8 ng/mL
same,Total SN-38 at 120 hours,[12]; [17],792.5 ng/mL
same,"AUC0-∞, free SN-38",[12]; [18],"1,196 ng · hr/mL"
same,"Cmax, free SN-38",[12]; [18],93 ng/mL
same,"Cmax, total SN-38",[12]; [18],"32,767 ng/mL"
same,Free SN-38 at 120 hours,[12]; [18],0.8 ng/mL
same,Total SN-38 at 120 hours,[12]; [18],111.5 ng/mL
same,"AUC0-∞, free SN-38",[12]; [19],"3,179 ng · hr/mL"
same,"Cmax, free SN-38",[12]; [19],164 ng/mL
same,"Cmax, total SN-38",[12]; [19],"150,334 ng/mL"
same,Free SN-38 at 120 hours,[12]; [19],3.7 ng/mL
same,Total SN-38 at 120 hours,[12]; [19],498 ng/mL
same,tumour growth and tumour regression versus irinotecan,"[6]; 2f 5 and 8 mg/kg vs irinotecan 80 mg/kg, P <0.0001",significantly inhibited tumour growth and prolonged tumour regression versus irinotecan
same,tumour regression versus olaparib,[6]; 2f 5 and 8 mg/kg vs olaparib 50 mg/kg,prolonged tumour regression versus olaparib
same,Percent TGI,"[6]; 5 mg/kg 2f IV days 1, 8, 15, alone or with olaparib 50 mg/kg orally",62%
same,Percent TGI,"[6]; 8 mg/kg 2f IV days 1, 8, 16, alone or with olaparib 50 mg/kg orally",94% and 97%
same,effect on HT-29 tumour growth (in words),[6],clear dose dependent repose with statistically significant inhibition of tumour growth
same,effect on SW620 tumour growth,[7],induce regression of SW620 tumours
same,tolerability,[7],well tolerated
BHALys[Lys]32[α-Glu-C10-SN-38]32†[ε-PEG˜2300]32‡ [Dendrimer 2a],Max. body weight loss (%),[1]; 10 mg/kg SN-38 equivalents IV once weekly for 3 weeks,0%
same,Max. body weight loss (%),[1]; [16],10%
same,tolerability,[1],well tolerated
same,% SN-38 released,[8]; 0.5 h,1.59%
same,% SN-38 released,[8]; 2 h,4.47%
same,% SN-38 released,[8]; 4 h,7.57%
same,% SN-38 released,[8]; 6 h,11.28%
same,% SN-38 released,[8]; 22 h,42.46%
same,GI50,[5],130 nM
same,% Release at 6 h in 9:1 PBS/DMA at 37° C.,[9],9%
same,% Release at 18 h in 9:1 PBS/DMA at 37° C.,[9],38%
same,animals euthanized due to weight loss,"[7]; 2a 25 mg/kg IV days 1, 8, 15, group of 6",One animal from the 2a group was euthanized during the study due to weight loss on Day 99
same,effect on SW620 tumour growth,[7],induce regression of SW620 tumours
same,tolerability,[7],well tolerated
BHALys[Lys]32[α-Glu-C20-SN-38]32†[ε-PEG˜2300]32‡ [Dendrimer 2b],% SN-38 released,[8]; 0.5 h,0.93%
same,% SN-38 released,[8]; 2 h,1.27%
same,% SN-38 released,[8]; 4 h,1.94%
same,% SN-38 released,[8]; 6 h,2.73%
same,% SN-38 released,[8]; 22 h,12.17%
same,% Release at 6 h in 9:1 PBS/DMA at 37° C.,[9],0%
same,% Release at 18 h in 9:1 PBS/DMA at 37° C.,[9],3%
BHALys[Lys]32[α-TDA-C10-SN-38]32†[ε-PEG˜2100]32‡ [Dendrimer 2c],% SN-38 released,[8]; 0.5 h,20.52%
same,% SN-38 released,[8]; 2 h,38.32%
same,% SN-38 released,[8]; 4 h,48.79%
same,% SN-38 released,[8]; 6 h,53.42%
same,% SN-38 released,[8]; 22 h,69.8%
same,GI50,[5],30 nM
same,% Release at 6 h in 9:1 PBS/DMA at 37° C.,[9],54%
same,% Release at 18 h in 9:1 PBS/DMA at 37° C.,[9],55%
BHALys[Lys]32[α-TDA-C20-Irinotecan]32†[ε-PEG˜2100]32‡ [Dendrimer 2k],GI50,[5],46000 nM
BHALys[Lys]32[α-TDA-C20-SN-38]32†[ε-PEG˜2300]32‡ [Dendrimer 2d],% SN-38 released,[8]; 0.5 h,1.87%
same,% SN-38 released,[8]; 2 h,5.47%
same,% SN-38 released,[8]; 4 h,9.50%
same,% SN-38 released,[8]; 6 h,14.92%
same,% SN-38 released,[8]; 22 h,46.69%
same,GI50,[5],140 nM
same,% Release at 6 h in 9:1 PBS/DMA at 37° C.,[9],5%
same,% Release at 18 h in 9:1 PBS/DMA at 37° C.,[9],13%
BHALys[Lys]32[α-THF-C20-SN-38]32†[ε-PEG˜2300]32‡ [Dendrimer 2i],Max. body weight loss (%),[1]; [14],8%
same,Max. body weight loss (%),[1]; [15],15%
same,Max. body weight loss (%),[1]; [16],15%
same,tolerability,[1],well tolerated
same,effect on HT-29 tumour growth,[4],induce transient regression of HT-29 tumours
same,Tumour growth inhibited,[4],103%
same,% Release at 6 h in 9:1 PBS/DMA at 37° C.,[9],40%
same,% Release at 18 h in 9:1 PBS/DMA at 37° C.,[9],60%
same,effect on SW620 tumour growth,[7],induce regression of SW620 tumours
same,tolerability,[7],well tolerated
